Experimental data reported in paper PMC5487423, “Yeast surface display identifies a family of evasins from ticks with novel polyvalent CC chemokine-binding activities” (Scientific Reports, 2017).

T1: P991_AMBCA, purified, C-terminal StrepII-8xHis tag (Amblyomma cajennense, UniProt A0A023FFD0 29-136)
T1 sequence: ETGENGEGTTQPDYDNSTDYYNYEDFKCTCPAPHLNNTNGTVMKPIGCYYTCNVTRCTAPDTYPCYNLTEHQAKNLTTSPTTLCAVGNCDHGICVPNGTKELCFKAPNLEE

T2: P467_RHIPU, purified, C-terminal StrepII-8xHis tag (Rhipicephalus pulchellus, UniProt L7M8Z8 22-127)
T2 sequence: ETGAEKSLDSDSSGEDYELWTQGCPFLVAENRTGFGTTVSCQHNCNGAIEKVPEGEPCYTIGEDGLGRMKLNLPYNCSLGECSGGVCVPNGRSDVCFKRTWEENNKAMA

B1: CCL18 (ligand, human, UniProt P55774 21-89, looked up)
chain: AQVGTNKELCCLVYTSWQIPQKFIVDYSETSPQCPKPGVILLTKRGRQICADPNKKWVQKYISDLKLNA
notes: source: bought: Peprotech
B2: CCL7 (ligand)
chain: not shown
notes: source: bought: Peprotech
B3: CCL5 (ligand, human, UniProt P13501 24-91, looked up)
chain: SPYSSDTTPCCFAYIARPLPRAHIKEYFYTSGKCSNPAVVFVTRKNRQVCANPEKKWVREYINSLEMS
notes: source: bought: Peprotech
B4: CCL1 (ligand, human, UniProt P22362 24-96, looked up)
chain: KSMQVPFSRCCFSFAEQEIPLRAILCYRNTSSICSNEGLIFKLKRGKEACALDTVGWVQRHRKMLRHCPSKRK
notes: source: bought: Peprotech
B5: CCL3 (ligand, human, UniProt P10147 24-92, looked up)
chain: SLAADTPTACCFSYTSRQIPQNFIADYFETSSQCSKPGVIFLTKRSRQVCADPSEEWVQKYVSDLELSA
notes: source: bought: Peprotech
B6: CCL8 (ligand, human, UniProt P80075 24-99, looked up)
chain: QPDSVSIPITCCFNVINRKIPIQRLESYTRITNIQCPKEAVIFKTKRGKEVCADPKERWVRDSMKHLDQIFQNLKP
notes: source: bought: Peprotech
B7: CCL11 (ligand)
chain: not shown
notes: source: bought: Peprotech

molecular target: T1, P991_AMBCA, purified, C-terminal …; assay: BLI; Kd and koff determination: His-tagged evasin immobilised on Ni-NTA biosensor (OctetRed), chemokine dilutions from 300 nM to 0.4 nM, 30 °C, same buffer as the screen; reference protein subtracted; 1:1 model with global fit, or steady state; each experiment once; settings: both partners purified

Does B1 bind?
Result: binds

B2 was tested. Which dissociation half-life did it give?
The dissociation half-life was 2.4 h.

Does B3 bind?
Result: binds

molecular target: T2, P467_RHIPU, purified, C-terminal …; assay: as above; settings: both partners purified

Does B1 bind?
Result: binds

Does B3 bind?
Result: binds

Does B4 bind?
Result: binds

Does B5 bind?
Result: binds

Does B6 bind?
Result: binds

Does B7 bind?
Result: binds
